The values that follow come from US7838231 (REGENTS OF THE UNIVERSITY OF MICHIGAN, dated 2010).

Assay [1] concerns the target T1, NPHP1, human full length, yeast two-hybrid prey (human, UniProt O15259 1-732).
T1 construct: also called nephrocystin 1
T1 sequence (looked up): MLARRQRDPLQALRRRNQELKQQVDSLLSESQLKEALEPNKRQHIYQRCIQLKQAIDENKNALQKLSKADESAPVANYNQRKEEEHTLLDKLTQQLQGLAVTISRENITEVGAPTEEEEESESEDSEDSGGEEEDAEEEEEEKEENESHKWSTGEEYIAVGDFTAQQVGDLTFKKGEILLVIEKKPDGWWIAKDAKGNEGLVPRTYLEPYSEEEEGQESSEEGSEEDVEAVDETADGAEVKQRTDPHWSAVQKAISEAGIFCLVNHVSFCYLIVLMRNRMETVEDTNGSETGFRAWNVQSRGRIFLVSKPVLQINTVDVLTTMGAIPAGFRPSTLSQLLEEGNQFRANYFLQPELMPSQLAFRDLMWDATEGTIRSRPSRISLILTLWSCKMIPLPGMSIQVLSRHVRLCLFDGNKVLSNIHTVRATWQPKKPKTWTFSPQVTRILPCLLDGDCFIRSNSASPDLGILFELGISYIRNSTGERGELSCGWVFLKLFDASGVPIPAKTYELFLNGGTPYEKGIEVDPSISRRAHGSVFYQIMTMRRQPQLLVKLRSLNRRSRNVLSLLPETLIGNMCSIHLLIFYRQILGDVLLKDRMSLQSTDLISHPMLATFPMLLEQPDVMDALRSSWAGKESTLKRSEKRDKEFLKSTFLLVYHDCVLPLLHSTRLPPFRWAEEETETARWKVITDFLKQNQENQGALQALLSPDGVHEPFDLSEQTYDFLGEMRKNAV
Nature of the assay: direct yeast two-hybrid assay.

Assay [2] concerns the target T2, NPHP4, human full length, yeast two-hybrid prey (human, UniProt O75161 1-1426).
T2 construct: also called nephroretinin; nephrocystin-4
T2 sequence: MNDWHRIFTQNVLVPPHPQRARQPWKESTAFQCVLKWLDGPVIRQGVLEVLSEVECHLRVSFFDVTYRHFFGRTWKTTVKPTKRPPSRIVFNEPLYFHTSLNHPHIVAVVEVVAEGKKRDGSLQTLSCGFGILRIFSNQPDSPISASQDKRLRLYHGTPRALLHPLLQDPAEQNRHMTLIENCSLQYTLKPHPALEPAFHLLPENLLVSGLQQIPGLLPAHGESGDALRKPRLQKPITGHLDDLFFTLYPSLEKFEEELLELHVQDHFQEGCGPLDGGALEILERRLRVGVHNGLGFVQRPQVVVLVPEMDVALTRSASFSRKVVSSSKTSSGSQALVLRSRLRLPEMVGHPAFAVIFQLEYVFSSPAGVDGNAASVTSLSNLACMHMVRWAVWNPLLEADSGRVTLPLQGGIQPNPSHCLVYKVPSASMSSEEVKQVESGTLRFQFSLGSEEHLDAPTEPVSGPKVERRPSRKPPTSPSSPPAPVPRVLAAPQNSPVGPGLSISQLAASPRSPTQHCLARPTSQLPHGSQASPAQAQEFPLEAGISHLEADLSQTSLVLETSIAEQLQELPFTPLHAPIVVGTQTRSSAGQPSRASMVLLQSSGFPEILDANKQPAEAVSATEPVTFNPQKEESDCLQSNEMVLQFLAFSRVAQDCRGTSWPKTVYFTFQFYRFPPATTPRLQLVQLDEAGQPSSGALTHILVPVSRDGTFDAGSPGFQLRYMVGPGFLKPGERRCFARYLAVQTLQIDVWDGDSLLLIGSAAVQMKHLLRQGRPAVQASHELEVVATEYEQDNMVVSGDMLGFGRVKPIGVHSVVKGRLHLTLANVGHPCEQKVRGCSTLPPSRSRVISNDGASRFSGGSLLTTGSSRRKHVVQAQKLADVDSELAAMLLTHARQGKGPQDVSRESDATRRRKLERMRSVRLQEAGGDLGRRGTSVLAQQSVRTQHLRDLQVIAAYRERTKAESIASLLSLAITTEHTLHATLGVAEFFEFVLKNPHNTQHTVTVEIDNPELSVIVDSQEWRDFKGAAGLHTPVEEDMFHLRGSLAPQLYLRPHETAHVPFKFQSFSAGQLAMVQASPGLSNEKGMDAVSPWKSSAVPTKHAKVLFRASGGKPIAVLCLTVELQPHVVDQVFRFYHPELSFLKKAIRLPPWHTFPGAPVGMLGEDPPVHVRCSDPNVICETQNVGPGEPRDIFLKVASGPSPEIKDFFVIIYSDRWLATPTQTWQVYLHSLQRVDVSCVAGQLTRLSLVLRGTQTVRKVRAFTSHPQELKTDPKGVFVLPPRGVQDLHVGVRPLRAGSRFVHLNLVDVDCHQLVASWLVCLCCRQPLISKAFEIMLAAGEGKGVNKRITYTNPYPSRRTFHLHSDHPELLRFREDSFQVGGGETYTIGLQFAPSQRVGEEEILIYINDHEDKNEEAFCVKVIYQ
The experiment in a line: direct yeast two-hybrid assay.

Assay [3] concerns the target T3, RPGR (non-ORF15 containing isoform), human full length, yeast two-hybrid prey (human, UniProt Q92834-2 1-815).
T3 construct: also called non-ORF15 containing RPGR isoform
T3 sequence (looked up): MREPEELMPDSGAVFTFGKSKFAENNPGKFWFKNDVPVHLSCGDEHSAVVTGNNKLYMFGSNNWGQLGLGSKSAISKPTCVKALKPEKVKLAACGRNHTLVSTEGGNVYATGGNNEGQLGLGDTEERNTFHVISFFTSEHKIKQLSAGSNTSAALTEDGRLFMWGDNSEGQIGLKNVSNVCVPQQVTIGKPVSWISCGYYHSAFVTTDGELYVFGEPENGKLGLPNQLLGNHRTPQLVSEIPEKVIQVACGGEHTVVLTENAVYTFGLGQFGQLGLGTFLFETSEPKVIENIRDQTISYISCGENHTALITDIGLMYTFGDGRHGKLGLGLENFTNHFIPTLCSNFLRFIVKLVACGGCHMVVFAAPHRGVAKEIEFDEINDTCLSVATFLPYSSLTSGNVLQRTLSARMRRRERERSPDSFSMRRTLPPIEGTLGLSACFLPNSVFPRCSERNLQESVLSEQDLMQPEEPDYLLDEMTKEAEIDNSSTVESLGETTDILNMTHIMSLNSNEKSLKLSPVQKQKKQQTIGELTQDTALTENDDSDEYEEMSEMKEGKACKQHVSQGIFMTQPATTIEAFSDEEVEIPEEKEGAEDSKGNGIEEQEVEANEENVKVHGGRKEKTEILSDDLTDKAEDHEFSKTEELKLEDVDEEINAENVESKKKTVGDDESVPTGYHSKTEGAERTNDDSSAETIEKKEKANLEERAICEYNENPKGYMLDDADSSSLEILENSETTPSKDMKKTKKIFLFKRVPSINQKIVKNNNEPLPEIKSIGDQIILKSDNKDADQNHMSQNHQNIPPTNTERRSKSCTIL
Nature of the assay: direct yeast two-hybrid assay.

Assay [4] addresses calmodulin (CALM2), human full length, yeast two-hybrid fusion (human, UniProt P0DP24 1-149). Nature of the assay: yeast two-hybrid screen of a human fetal brain expression library, NPHP5 as bait.

B1: full-length human nephrocystin-5 (NPHP5), yeast two-hybrid fusion (other, not shown: small tags and cut ends)
chain: MKPTGTDPRILSIAAEVAKSPEQNVPVILLKLKEIINITPLGSSELKKIKQDIYCYDLIQYCLLVLSQDYSRIQGGWTTISQLTQILSHCCVGLEPGEDAEEFYNELLPSAAENFLVLGRQLQTCFINAAKAEEKDELLHFFQIVTDSLFWLLGGHVELIQNVLQSDHFLHLLQADNVQIGSAVMMMLQNILQINSGDLLRIGRKALYSILDEVIFKLFSTPSPVIRSTATKLLLLMAESHQEILILLRQSTCYKGLRRLLSKQETGTEFSQELRQLVGLLSPMVYQEVEEQKLHQAACLIQAYWKGFQTRKRLKKLPSAVIALQRSFRSKRSKMLLEINRQKEEEDLKLQLQLQRQRAMRLSRELQLSMLEIVHPGQVEKHYREMEEKSALNIQKHWRGYRERKNFHQQRQSLIEYKAAVTLQRAALKFLAKCRKKKKLFAPWRGLQELTDARRVELKKRVDDYVRRHLGSPMSDVVSRELHAQAQERLQHYFMGRALEERAQQHREALIAQISTNVEQLMKAPSLKEAEGKEPELFLSRSRPVAAKAKQAHLTTLKHIQAPWWKKLGEESGDEIDVPKDELSIELENLFIGGTKPP
notes: Full-length NPHP5 cDNA (598 amino acid residues) fused to a GAL4 domain; also called KIAA0036
As for B1, the binding result was “no binding” in assay [1], “no binding” in assay [2], “no binding” in assay [3] and “binds” in assay [4].
